From patent publication US20160137746A1, “METHODS FOR TREATING HIGH CARDIOVASCULAR RISK PATIENTS WITH HYPERCHOLESTEROLEMIA” (Sanofi Biotechnology, priority 2014, published 2016)

Key:
[1] = test system: high cardiovascular risk patients with hypercholesterolemia; experiment: ODYSSEY COMBO I: lipid efficacy of alirocumab vs placebo, add-on to maximally tolerated statin, 52 weeks; format: in vivo, human
Text: Each of the COMBO studies was randomized, double-blinded, and placebo-controlled.
The primary efficacy endpoint for each study was the difference between treatment arms in the percent change in LDL-C from baseline to Week 24.
Apo, apolipoprotein; HDL-C, high-density lipoprotein cholesterol; ITT, intent-to-treat; LDL-C, low-density lipoprotein cholesterol; Lp(a), lipoprotein (a); TG, triglycerides.
COMBO I was a Phase 3, randomized, double-blind, placebo-controlled, parallel-group, multicenter, 52-week study.
After randomization, patients entered a double-blind treatment period of 52 weeks. […] Patients randomized to placebo received a 1 ml SC placebo injection from an identical auto-injector.
To maintain blinding, the patient and investigator were not informed of the Week 8 LDL-C levels (or any lipid values after randomization); continuation or up-titration of dose occurred in an automated and blinded manner.
Primary analyses of efficacy endpoints were conducted using an ITT approach (based on the ITT population defined above), including all lipid data, regardless of whether the patient was continuing therapy or not. This corresponds to ITT estimands, defined for primary and key secondary endpoints. In addition, analyses were also conducted using an on-treatment approach (based on the mITT population defined above), including lipid data collected during the efficacy treatment period. This corresponds to on-treatment estimands of key secondary endpoints.
With regards to the primary efficacy analysis (ITT approach), the percent change in calculated LDL-C from baseline to Week 24 was analyzed using a mixed-effect model with repeated measures (MMRM) approach. All post-baseline data available from Week 4 to Week 52 analysis windows were used and missing data were accounted for by the MMRM.

[2] = test system: high cardiovascular risk patients with hypercholesterolemia; experiment: ODYSSEY COMBO I: antibodies to alirocumab; format: in vivo, human
Text: In seven of these patients, the antibodies were transient and resolved despite continued alirocumab treatment.

[3] = test system: high cardiovascular risk patients with hypercholesterolemia; conditions: in vivo
[4] = test system: high cardiovascular risk patients with hypercholesterolemia; experiment: ODYSSEY COMBO I: safety (TEAEs, adjudicated CV events, laboratory PCSA, low LDL-C)
Method: Safety was assessed through adverse event (AE) reporting (including adjudicated cardiovascular events), laboratory analyses, and vital signs measurement. Since the LDL-C-lowering effects of PCSK9 inhibition on top of a statin are unknown, a number of AEs were defined as being of special interest and were monitored, including alanine aminotransferase abnormalities, allergic events, hemolytic anemia, pregnancy, overdose with study drug, neurologic events, ophthalmic events, and local injection site reactions. AEs were determined to be of special interest based on review of previous clinical trials, correspondence with regulatory authorities and the Data Monitoring Committee, the use of a monoclonal antibody in this study, and the route of drug administration.
AEs (including adjudicated cardiovascular events), laboratory parameters, and vital signs were reported descriptively, based on the safety population (all randomized patients who received at least 1 dose or partial dose of study treatment). The safety analysis focused on the treatment-emergent AE period defined as the time from the first double-blind dose to the last double-blind dose of the investigational product +70 days (10 weeks).
The safety population included all randomized patients who received at least one dose or part of a dose of the double-blind IMP.
Safety analyses were descriptive, performed on the safety population according to treatment actually received. For analysis of TEAE and PCSA, the safety analysis focused on the TEAE period defined as the time from the first dose of double-blind IMP up to 70 days after the last double-blind injection.

[5] = Week 24, 'Combo I: Overall Results' paragraph
[6] = alirocumab patients with LDL-C <25 mg/dL

In the case of “Alirocumab: human anti-PCSK9 antibody; HCVR SEQ ID NO:1, LCVR SEQ ID NO:6; CDRs SEQ ID NOs 2/3/4/7/8/10”, the “Non-HDL-C percent change, LS mean difference vs placebo” value ([1]; On-treatment, Week 24) is reported as “placebo of −40.4%”, the “Percent LDL-C reduction vs placebo within demographic and patient subgroups” value ([1]; Week 24, FIG. 5) is reported as “seen at every level within each subgroup” and the “Absolute mean decrease from baseline in LDL-C” value [1, 5] is reported as -90.8 mg/dL. The “Patients who achieved LDL-C <100 mg/dL” value [1, 5] was 57%, the “Change in triglyceride levels” value ([1]; baseline to Week 24) was “No significant change” and the “HDL-C percent change from baseline” value ([1]; baseline to Week 24) was 3.5 (1.1) %. The “Additional mean LDL-C reduction at week 24 compared with week 12” value ([1]; patients with dose increase to 150 mg Q2W at week 12) was 22.8%, the “Effect of anti-alirocumab antibodies on safety and efficacy” value ([2]; in vivo) was “no observed effect on safety and efficacy” and the “Median time to detection of antibodies to alirocumab” value ([2]; in vivo) was 12 weeks. For the same substance, the “Antibodies to alirocumab detected at baseline” value ([2]; patients subsequently randomized to alirocumab (3/197)) was 1.5%, the Anti-alirocumab antibody titer ([2]; treatment-emergent positive patients) was no more than 240 and the “TEAE preferred term: Upper respiratory tract infection” value [3] was 31 (6.5). The “TEAE system organ class: Infections and infestations” value [3] was 130 (27.1), the “Ischemic events (within SOC Cardiac disorders)” value ([4]; TEAE period) was 9 events and the SAEs reported ([4]; TEAE period) was 12.6%. For the same substance, the “SOC Cardiac disorders” value ([4]; TEAE period) was 8.2%, the “SOC Metabolism and nutrition disorder” value ([4]; TEAE period) was 10.1% and the SOC eye disorders ([4]; TEAE period) was 4.3%. The Arthralgia rate ([4]; alirocumab group as a whole) was 3.9%, the “Invertebral disc protusion rate” value ([4]; alirocumab group as a whole) was 1.0% and the Myalgia rate ([4]; alirocumab group as a whole) was 3.4%. The Osteoarthritis rate ([4]; alirocumab group as a whole) was 3.9%, the Arthralgia rate [4, 6] was 5.1% and the “Invertebral disc protusion rate” value [4, 6] was 5.1%. For the same substance, the Myalgia rate [4, 6] was 7.7%, the Osteoarthritis rate [4, 6] was 7.7% and the “Patients with cardiovascular events that were positively adjudicated” value ([4]; as stated in text b249 (5 patients)) was 2.4%. The “PCSA: decrease of hemoglobin from baseline ≧20 g/L” value ([4]; in vivo) was 6.3%, the “PCSA: new cases of erythrocytes values ≧6 Tera/L” value ([4]; in vivo) was 2.5% and the “Patients with impaired glucose control at baseline classified as diabetic in the TEAE period” value ([4]; in vivo) was 7.4%. For the same substance, the “Patients with two consecutive calculated LDL-C values <25 mg/dL” value ([4]; in vivo) was 19.5%, the “Safety in patients with two consecutive calculated LDL-C <25 mg/dL” value ([4]; in vivo) was “No particular safety concern” and the “Asthma (general allergic reactions), cases” value ([4]; including 2 serious cases) was 5 (2.4%) No. (%). For the same substance, the “Deaths during treatment period” value ([4]; myocardial infarction and pulmonary embolism) was 1.0%, the Tolerability ([4]; overall results) was “generally well tolerated” and the “Time to the first calculated LDL-C value <15 mg/dL, mean (SD)” value ([4]; safety population) was 12.51 (6.83) weeks. For the same substance, the “Time to the first calculated LDL-C value <15 mg/dL, median” value ([4]; safety population) was 13.57 weeks, the “Time to the first calculated LDL-C value <25 mg/dL, mean (SD)” value ([4]; safety population) was 11.48 (9.72) weeks and the “Time to the first calculated LDL-C value <25 mg/dL, median” value ([4]; safety population) was 8.00 weeks. The “Any patients with treatment emergent cardiovascular events confirmed by adjudication” value ([4]; safety population, to week 52) was −6 (2.9) No. (%) of patients, the “Arthralgia (TEAE preferred term)” value ([4]; safety population, to week 52) was 8 (3.9) No. (%) of patients and the “Congestive heart failure requiring hospitalization, adjudicated” value ([4]; safety population, to week 52) was 0 No. (%) of patients. For the same substance, the “Coronary heart disease death (including undetermined cause), adjudicated” value ([4]; safety population, to week 52) was 1 (0.5) No. (%) of patients, the “Dizziness (TEAE preferred term)” value ([4]; safety population, to week 52) was 11 (5.3) No. (%) of patients and the “Fatal and non-fatal ischemic stroke (including stroke not otherwise specified), adjudicated” value ([4]; safety population, to week 52) was −2 (1.0) No. (%) of patients. The “Injection site reaction (TEAE preferred term)” value ([4]; safety population, to week 52) was 11 (5.3) No. (%) of patients, the “Ischemia driven coronary revascularization procedure, adjudicated” value ([4]; safety population, to week 52) was 3 (1.4) No. (%) of patients and the “Local injection site reactions (AE of special interest)” value ([4]; safety population, to week 52) was 11 (5.3) No. (%) of patients. The “Nasopharyngitis (TEAE preferred term)” value ([4]; safety population, to week 52) was 15 (7.2) No. (%) of patients, the “Neurocognitive disorders (AE of special interest)” value ([4]; safety population, to week 52) was 0 (0) No. (%) of patients and the “Neurological events (AE of special interest)” value ([4]; safety population, to week 52) was 5 (2.4) No. (%) of patients. For the same substance, the “Non-cardiac chest pain (TEAE preferred term)” value ([4]; safety population, to week 52) was 2 (1.0) No. (%) of patients, the “Non-fatal myocardial infarction, adjudicated” value ([4]; safety population, to week 52) was 1 (0.5) No. (%) of patients and the “Potential general allergic reaction events (AE of special interest)” value ([4]; safety population, to week 52) was 18 (8.7) No. (%) of patients. The “Sinusitis (TEAE preferred term)” value ([4]; safety population, to week 52) was 11 (5.3) No. (%) of patients, the “TEAE leading to death” value ([4]; safety population, to week 52) was 2 (1.0) No. (%) of patients and the TEAEs ([4]; safety population, to week 52) was 157 (75.8) No. (%) of patients. For the same substance, the “TEAEs leading to discontinuation” value ([4]; safety population, to week 52) was 13 (6.3) No. (%) of patients, the “Treatment-emergent SAEs” value ([4]; safety population, to week 52) was 26 (12.6) No. (%) of patients and the “Local injection site reactions (AE of special interest)” value ([4]; safety population, to week 52, listed as alirocumab) was 11 (5.3%) No. (%) of patients.
